Results on 6 molecules are retold here after article PMC9757060 (Nucleic Acids Research, 2022).

One may read the Kd as the free concentration of one partner at which half of the binding sites on the other are occupied at equilibrium, for simple one-to-one binding. A higher Kd goes with weaker binding.

Where a chain is given by its changes, count along the chain named. Names and notes keep the numbering of the source.

Common to all, as to experiment: ITC
In general terms: In ITC the heat of successive injections is recorded.

In experiment [1] the target is mouse UHRF1 PHD finger (residues 304–372) (mouse) (UniProt Q8VDF2).
Experiment [2] concerns the target T1, mouse UHRF1 PHD finger (residues 304–372) L337A (mouse, UniProt Q8VDF2 304-372, L337A).
T1 sequence (looked up): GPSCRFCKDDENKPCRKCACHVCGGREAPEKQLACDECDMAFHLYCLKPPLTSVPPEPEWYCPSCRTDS

For experiment [3], the target named is T2, mouse UHRF1 PHD finger (residues 304–372) (mouse, UniProt Q8VDF2 304-372).
T2 sequence (looked up): T1 sequence (looked up) with A34L

Take “N-terminal tail of PAF15 (PCNA-associated factor 15) (peptide)”: in experiment [1], the Kd was 3520 nM.

B1: mDPPA3 residues 76–127 followed by an additional Trp (mDPPA3 76–128W) (domain or fragment, mouse)
chain: RREVQSAFPKRRVRTLLSVLKDPIAKMRRLVRIEQRQKRLEGNEFERDSEPFW
On to B1, for which the Kd in experiment [2] is above 43000 nM; in experiment [3], 27.7 nM.

B2: mDPPA3 76–128W R104A (domain or fragment, mouse)
chain: B1 chain with R29A
Consider B2, for which, in experiment [3], the binding result was “binds”.

B3: mDPPA3 76–128W R89A (domain or fragment, mouse)
chain: B1 chain with R14A
B3 gave a Kd in experiment [3] of 361 nM.

B4: mDPPA3 76–128W L91A/V94A (domain or fragment, mouse)
chain: B1 chain with L16A, V19A
Consider B4, for which the Kd in experiment [3] stood at 1080 nM.
As for KRRVRTLLSVLKDPIAKMRRLVRIEQRQKRLEGN (peptide, UniProt Q8QZY3 85-118, looked up) [mDPPA3 residues 85–118], the affinity in experiment [3], expressed as Kd, was 45 nM.
